# Measured values reported in US20060189529A1 (AMBRX, published 2006).
# T1: full length rat GHR (L43R) on BAF3 cells (clone 2E2-2B12-F4) (rat) (UniProt P16310)
# T1 sequence (looked up): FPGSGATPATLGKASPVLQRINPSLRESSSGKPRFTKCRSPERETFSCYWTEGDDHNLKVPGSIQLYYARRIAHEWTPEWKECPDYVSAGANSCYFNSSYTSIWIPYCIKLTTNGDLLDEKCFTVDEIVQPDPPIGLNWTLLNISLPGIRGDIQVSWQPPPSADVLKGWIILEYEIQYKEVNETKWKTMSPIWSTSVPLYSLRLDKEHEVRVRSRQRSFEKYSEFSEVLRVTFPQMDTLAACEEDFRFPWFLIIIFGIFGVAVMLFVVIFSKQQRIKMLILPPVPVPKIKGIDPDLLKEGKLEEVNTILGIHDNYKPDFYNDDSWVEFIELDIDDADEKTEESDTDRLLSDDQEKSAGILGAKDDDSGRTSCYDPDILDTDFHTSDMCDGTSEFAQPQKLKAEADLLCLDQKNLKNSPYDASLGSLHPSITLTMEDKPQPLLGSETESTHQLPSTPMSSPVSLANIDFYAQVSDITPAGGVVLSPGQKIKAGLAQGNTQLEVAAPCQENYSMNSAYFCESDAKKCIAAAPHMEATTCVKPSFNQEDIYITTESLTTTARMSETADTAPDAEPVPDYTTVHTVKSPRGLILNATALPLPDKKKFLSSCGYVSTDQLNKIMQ
# T2: human growth hormone receptor on IM-9 cells (human, UniProt P10912 19-638)
# T2 sequence (looked up): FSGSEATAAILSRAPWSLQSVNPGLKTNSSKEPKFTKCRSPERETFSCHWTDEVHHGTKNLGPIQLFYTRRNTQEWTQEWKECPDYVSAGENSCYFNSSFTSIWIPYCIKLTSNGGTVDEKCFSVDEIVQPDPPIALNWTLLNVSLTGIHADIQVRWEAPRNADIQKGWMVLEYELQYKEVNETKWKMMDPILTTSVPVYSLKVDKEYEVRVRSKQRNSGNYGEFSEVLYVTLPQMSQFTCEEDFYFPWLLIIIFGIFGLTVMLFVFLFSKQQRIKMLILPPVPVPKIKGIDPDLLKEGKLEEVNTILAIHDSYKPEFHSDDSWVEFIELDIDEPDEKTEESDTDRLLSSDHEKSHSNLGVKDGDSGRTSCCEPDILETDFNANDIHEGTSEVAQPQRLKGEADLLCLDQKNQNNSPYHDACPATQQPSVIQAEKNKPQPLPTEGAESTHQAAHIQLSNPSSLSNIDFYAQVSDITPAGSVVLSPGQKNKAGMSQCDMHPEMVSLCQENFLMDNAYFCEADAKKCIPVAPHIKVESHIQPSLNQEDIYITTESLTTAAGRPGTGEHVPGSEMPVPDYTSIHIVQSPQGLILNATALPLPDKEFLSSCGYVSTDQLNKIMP
# T3: rat GHR ECD (L43R), soluble, C-terminal 6His (rat, UniProt P16310 47-256)
# T3 construct: also called soluble GHR ECD; rat GHR (L43R) extra cellular domain; not shown: C-terminal 6His tag of pET20b
# T3 sequence (looked up): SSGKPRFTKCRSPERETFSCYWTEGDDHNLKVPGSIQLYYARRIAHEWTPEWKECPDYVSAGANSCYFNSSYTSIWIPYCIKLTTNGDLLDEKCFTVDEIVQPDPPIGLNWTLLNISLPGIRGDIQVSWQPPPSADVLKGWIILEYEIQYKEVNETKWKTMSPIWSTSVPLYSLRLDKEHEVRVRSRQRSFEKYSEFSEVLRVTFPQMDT
# B1: rat GH WT (ligand, UniProt P01244 27-216, looked up)
# chain: FPAMPLSSLFANAVLRAQHLHQLAADTYKEFERAYIPEGQRYSIQNAQAAFCFSETIPAPTGKEEAQQRTDMELLRFSLLLIQSWLGPVQFLSRIFTNSLMFGTSDRVYEKLKDLEEGIQALMQELEDGSPRIGQILKQTYDKFDANMRSDDALLKNYGLLSCFKKDLHKAETYLRVMKCRRFAESSCAF
# notes: also called rat growth hormone
# How the values were obtained:
# [1] = target: T1, full length rat GHR (L43R) on BAF3 cells (clone 2E2-2B12-F4) (rat); experiment: cell-based or functional assay
# [2] = target: human growth hormone receptor on IM-9 cells (human) (UniProt P10912); experiment: cell-based or functional assay
# [3] = target: T2, human growth hormone receptor on IM-9 …; experiment: cell-based or functional assay
# [4] = target: T3, rat GHR ECD (L43R), soluble, C-terminal …; experiment: Biacore SPR; rat GHR ECD (L43R) on CM5 chip, GH injected; bivalent analyte model
# Experimental: Various concentrations of wild type or mutant GH (0.1-300 nM) in HBS-EP buffer (Biacore™, Pharmacia) were injected over the GHR surface at a flow rate of 40 μl/min for 4-5 minutes, and dissociation was monitored for 15 minutes post-injection. The surface was regenerated by a 15 second pulse of 4.5M MgCl₂. […] Reference cell with no receptor immobilized was used to subtract any buffer bulk effects and non-specific binding.
# Kinetic binding data obtained from GH titration experiments was processed with BiaEvaluation 4.1 software (BIACORE™). […] Equilibrium dissociation constants (Kd) were calculated as ratios of individual rate constants (koff/kₒₙ).
Molecule,"Proliferation EC50 (BrdU, rat GHR (L43R) BAF3 cells) (nM as headed; WHO hGH expressed as unity) [1]",pSTAT5 EC50 (IM-9) (nM as headed; WHO hGH expressed as unity) [2],"EC50 (nM), STAT5 phosphorylation in IM-9 cells [3]",Kd [4],koff [4],kon [4]
hGH G131pAF-30KPEG (from UniProt P01241 27-217) (ligand),4.6,23.8,,,,
hGH K145pAF-30KPEG (from UniProt P01241 27-217) (ligand),5.3,20.6,,,,
hGH R134pAF-20KPEG (from UniProt P01241 27-217) (ligand),,5.3,,,,
hGH Y35pAF-40KPEG (from UniProt P01241 27-217) (ligand),24,53.3,,,,
hGH Y143pAF-30KPEG (from UniProt P01241 27-217) (ligand),6.6,12.3,,,,
B1,,,> 200000 nM,250 nM,0.0083 s⁻¹,33000 M⁻¹ s⁻¹
